Results reported in patent publication US20230190870A1, “Method for Treating Lysosomal Storage Diseases with Histatin Peptides” (THE BOARD OF TRUSTEES OF THE UNIVERSITY OF ILLINOIS, priority 2020, published 2023).
Square brackets hold non-standard residues; d marks the D form. Ends that are not written are not given here. Peptide text beside a SMILES is read from it. pS = N[C@@H](COP(=O)(O)O)C(=O)O

Key:
[1] = biological target: T1, Synthetic TMEM97 (144-176) (Homo sapiens, UniProt Q5BJF2); assay: Surface plasmon resonance, immobilized synthetic TMEM97 (144-176); type: binding; conditions: SPR
T1 construct: made in house; host or cells: chemical solid-phase synthesis (Fmoc, Wang resin)
Procedure: (§1) Surface Plasmon Resonance (SPR). Recombinant full-length TMEM97 (also called MAC30, from HEK293 cells) and GST-TMEM97 (108-176, recombinant GST-C terminal from wheat germ) proteins were purchased from OriGene (Rockville, Md.) and Abnova (Taipei City, Taiwan), respectively. Three peptides, TMEM97 (108-176), TMEM97 (108-143) and TMEM97 (144-176), were synthesized. All proteins and peptides were initially prepared in HBS buffer containing 10 mM HEPES, pH 7.4, 150 mM NaCl, and 0.05% surfactant P20. The CM5 sensor surface was first activated by 1-ethyl-3-(3-dimethylaminopropyl) carbodiimide hydrochloride (EDC)/N-hydroxy succinimide (NHS) mixture using a Biacore T200 or Biacore 8K instrument (GE Healthcare). […] Flow channels 1 and 3 were used as references.
(§2) The three synthesized peptides were diluted to 50 μg/mL in 10 mM sodium acetate at pH 4.0 and immobilized to flow channels 2, 3 and 4, respectively, on another sensor chip. The unmodified surfaces on a flow channel 1 were used as a reference control. Histatin solutions with a series of increasing concentrations (0.78-25 μM at 2-fold dilution) were applied to all four channels at a 30 μL/minute flow rate at 25° C. The data were double-referenced with reference channel and zero concentration responses, and reference subtracted sensorgrams were fitted with 1 to 1 Langmuir kinetic model using a Biacore T200 evaluation software V3.0 or Insight evaluation software. The equilibrium dissociation constants ([…]) were determined from two rate constants (KD=kd/ka).
(§3) To determine more precisely which segment of TMEM97 is necessary for binding of Hst1, multiple synthetic fragments of TMEM97 were generated (Table 6) and binding to Hst1 was tested using SPR. […] Smaller fragments of the C-terminal of TMEM97 were then constructed to represent the (predicted) luminal (108-143) and cytoplasmic (144-176) exposed segments of the C-terminus of TMEM97 based on modeling experiments previously described. […] SPR results for Hst1 were confirmed using ITC as an orthogonal analytical method.
(§4) To determine the region(s) of Hst1 that mediate binding to TMEM97, SPR testing was performed with various Hst1 fragments and either recombinant TMEM97 (GST-tagged, wheat-germ derived, C-terminal fragment TMEM97 (108-176)) or synthesized TMEM97 (TMEM97 (108-176), TMEM97 (108-143) and TMEM97 (144-176)).

GST-TMEM97 (108-176) = biological target: T2, GST-TMEM97 (108-176) (Homo sapiens, UniProt Q5BJF2); assay: Surface plasmon resonance, immobilized GST-TMEM97 (108-176); type: binding; conditions: SPR
T2 construct: GST-TMEM97 (108-176, recombinant GST-C terminal from wheat germ); purchased Abnova (Taipei City, Taiwan); host or cells: wheat germ (cell-free)
Procedure: as §1, §2, §4

[2] = biological target: T3, Synthetic TMEM97 (108-176) (Homo sapiens, UniProt Q5BJF2); assay: Surface plasmon resonance, immobilized synthetic TMEM97 (108-176); type: binding; conditions: SPR
T3 construct: Three peptides, TMEM97 (108-176), TMEM97 (108-143) and TMEM97 (144-176), were synthesized; made in house; host or cells: chemical solid-phase synthesis (Fmoc, Wang resin)
Procedure: as §1, §2, §3, §4

[3] = biological target: T4, Synthetic TMEM97 (108-143) (Homo sapiens, UniProt Q5BJF2); assay: Surface plasmon resonance, immobilized synthetic TMEM97 (108-143); type: binding; conditions: SPR
T4 construct: made in house; host or cells: chemical solid-phase synthesis (Fmoc, Wang resin)
Procedure: as §1, §2, §3, §4

[4] = biological target: T5, full-length recombinant TMEM97 (HEK293 cells) (Homo sapiens, UniProt Q5BJF2); assay: Surface plasmon resonance, immobilized full-length TMEM97; type: binding; conditions: SPR
T5 construct: Recombinant full-length TMEM97 (also called MAC30, from HEK293 cells); purchased OriGene (Rockville, Md.); host or cells: HEK293 cells
Procedure: The three synthesized peptides were diluted to 50 μg/mL in 10 mM sodium acetate at pH 4.0 and immobilized to flow channels 2, 3 and 4, respectively, on another sensor chip. The unmodified surfaces on a flow channel 1 were used as a reference control. […] The data were double-referenced with reference channel and zero concentration responses, and reference subtracted sensorgrams were fitted with 1 to 1 Langmuir kinetic model using a Biacore T200 evaluation software V3.0 or Insight evaluation software. The equilibrium dissociation constants (K&) were determined from two rate constants (KD=kd/ka).

[5] = biological target: T6, Synthetic TMEM97 (108-176) peptide; assay: SPR
T6 construct: Synthetic peptide; also called full C-terminal synthetic TMEM97
T6 peptide: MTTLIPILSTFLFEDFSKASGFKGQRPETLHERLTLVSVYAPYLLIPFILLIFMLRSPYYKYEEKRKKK

[6] = biological target: T7, Synthetic TMEM97 (144-176) peptide; assay: SPR
T7 construct: Synthetic peptide; also called (predicted) cytoplasmic segment
T7 peptide: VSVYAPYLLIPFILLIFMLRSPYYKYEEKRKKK

[7] = Circular dichroism secondary structure analysis (DichroWeb); type: physicochemical
Procedure: Circular Dichroism (CD). CD analysis was performed on a Jasco 815 CD spectrometer at room temperature. TMEM97 (108-176) and Hst1 full-length peptides were prepared as 10 mM stock in 25% DMSO and water, respectively, and diluted to 0.15 mg/mL final concentration in 10 mM […] buffer. A total of 400 μL of each sample was added into a 1 mm quartz sample cell, and CD spectra were recorded from 260 nm to 190 nm wavelength. Data points were measure in 0.5 nm wavelength step at a scanning speed of 100 nm/minute. A total of five spectra were acquired for each sample and averaged. […] buffer without peptide was used as a control curve, which was subsequently subtracted from the CD spectra of peptide samples. The resulting buffer control subtracted CD intensity row data in millidegrees were submitted to DichroWeb and fitted with multiple embedded models and converted to mean residue ellipticity.
Subsequently, the hypothesis that interaction between Hst1 and TMEM97 could affect the structure of each protein was tested. Also, the secondary structure of Hst1 and TMEM97 was tested in solution using CD measurements. It was noted that Hst1 alone is mostly disordered (over 50%) with some degree of β-strand, while TMEM97 (108-176) contains some α-helical and β-strand regions with ˜34% disordered regions. According to CD spectra comparison, there seemed to be more secondary structures formed upon Hst1 binding to TMEM97 (108-176).

[8] = CD, fraction of secondary structure

T5 sequence (Q5BJF2 whole entry): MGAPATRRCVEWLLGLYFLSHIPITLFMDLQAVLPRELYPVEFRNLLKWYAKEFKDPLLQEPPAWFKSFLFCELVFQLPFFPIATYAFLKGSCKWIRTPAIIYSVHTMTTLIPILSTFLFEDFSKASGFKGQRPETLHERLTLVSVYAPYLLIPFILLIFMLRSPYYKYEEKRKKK

Molecule: N=C(N)NCCC[C@H](NC(=O)[C@H](Cc1ccc(O)cc1)NC(=O)CNC(=O)[C@H](Cc1c[nH]cn1)NC(=O)[C@H](Cc1c[nH]cn1)NC(=O)[C@H](CCCNC(=N)N)NC(=O)[C@H](CCCCN)NC(=O)[C@H](CCC(=O)O)NC(=O)[C@H](Cc1c[nH]cn1)NC(=O)[C@H](COP(=O)(O)O)NC(=O)[C@@H](N)CC(=O)O)C(=O)N[C@@H](CCCNC(=N)N)C(=O)N[C@@H](CCCCN)C(=O)N[C@@H](Cc1ccccc1)C(=O)N[C@@H](Cc1c[nH]cn1)C(=O)N[C@@H](CCC(=O)O)C(=O)N[C@@H](CCCCN)C(=O)N[C@@H](Cc1c[nH]cn1)C(=O)N[C@@H](Cc1c[nH]cn1)C(=O)O [Hst1(1-19)] (H-D[pS]HEKRHHGYRRKFHEKHH-OH)
- % Rmax [1]: (% Rmax = 16%)
- % Rmax (GST-TMEM97 (108-176)): (% Rmax = 32%)
- % Rmax [2]: (% Rmax = 19%)

Molecule: N=C(N)NCCC[C@H](NC(=O)[C@H](Cc1ccc(O)cc1)NC(=O)CNC(=O)[C@H](Cc1c[nH]cn1)NC(=O)[C@H](Cc1c[nH]cn1)NC(=O)[C@H](CCCNC(=N)N)NC(=O)[C@H](CCCCN)NC(=O)[C@H](CCC(=O)O)NC(=O)[C@H](Cc1c[nH]cn1)NC(=O)[C@H](COP(=O)(O)O)NC(=O)[C@@H](N)CC(=O)O)C(=O)N[C@@H](CCCNC(=N)N)C(=O)N[C@@H](CCCCN)C(=O)N[C@@H](Cc1ccccc1)C(=O)N[C@@H](Cc1c[nH]cn1)C(=O)N[C@@H](CCC(=O)O)C(=O)N[C@@H](CCCCN)C(=O)N[C@@H](Cc1c[nH]cn1)C(=O)N[C@@H](Cc1c[nH]cn1)C(=O)N[C@@H](CO)C(=O)N[C@@H](Cc1c[nH]cn1)C(=O)N[C@@H](CCCNC(=N)N)C(=O)N[C@@H](CCC(=O)O)C(=O)N[C@@H](Cc1ccccc1)C(=O)N1CCC[C@H]1C(=O)N[C@@H](Cc1ccccc1)C(=O)O [Hst1(1-26)] (H-D[pS]HEKRHHGYRRKFHEKHHSHREFPF-OH)
- % Rmax [1]: (% Rmax = 4%)
- % Rmax (GST-TMEM97 (108-176)): (% Rmax = 24%)
- KD / binding [3]: No binding
- % Rmax [2]: (% Rmax = 8%)

Molecule: HYHKFHRYYDPGSNLYKEHNHGFHHGYKDEFRREpSRDS (HYHKFHRYYDPGSNLYKEHNHGFHHGYKDEFRRE[pS]RDS) [reference compound]
- % Rmax [4]: 8%
- KD ([4]; 25° C., 1 to 1 Langmuir kinetic model): No binding
- % Rmax (GST-TMEM97 (108-176)): 5%
- KD (GST-TMEM97 (108-176)): No binding

Molecule: Hst1(1-14): Hst1 fragment, residues 1-14 (DSHEKRHHGYRRKF)
- KD [1]: No binding
- KD / binding [3]: No binding
- KD [2]: No binding

Molecule: Hst1(15-38): Hst1 fragment, residues 15-38 (HEKHHSHREFPFYGDYGSNYLYDN)
- KD [1]: No binding
- KD (GST-TMEM97 (108-176)): No binding
- KD [2]: No binding

Molecule: Hst1(20-32): Hst1 fragment, residues 20-32 (SHREFPFYGDYGS)
- KD [1]: No binding

Molecule: HEKHHSHREFPFYGDYGSNYLYDN (Fragment of Hst1) [Hst1(15-38)]
- binding result [5]: no binding
- binding result [6]: no binding

Molecule: SHREFPFYGDYGS (Fragment of Hst1) [Hst1(20-32)]
- binding result [6]: no binding

B1: MTTLIPILSTFLFEDFSKASGFKGQRPETLHERLTLVSVYAPYLLIPFILLIFMLRSPYYKYEEKRKKK (peptide)
chain: MTTLIPILSTFLFEDFSKASGFKGQRPETLHERLTLVSVYAPYLLIPFILLIFMLRSPYYKYEEKRKKK
- disordered regions ([7]; CD in solution): ~34%
- Helix [7, 8]: 0.14
- Strand [7, 8]: 0.31
- Turns [7, 8]: 0.21
- Unordered [7, 8]: 0.34
